Changes are numbered by the printed parent chain. Names and notes keep the numbering of the source. No end group written: not given here.
B1: R28A-HD5: HD5 mutant R28A, chemically synthesized; cationicity (peptide, UniProt Q01523 20-94, looked up, variant R28A)
Defensin alpha 5: ESLQERADEATTQKQSGEDNQDLAISFAGNGLSALRTSGSQARATCYCRTGRCATRESLSGVCEISGRLYALCCR
modifications: Defensin-5
B2: L16A-HD5: HD5 mutant L16A, chemically synthesized; hydrophobicity (peptide, UniProt Q01523 20-94, looked up, variant L16A)
Defensin alpha 5: B1 Defensin alpha 5 with L59A, A71R
modifications: Defensin-5
B3: S15A-HD5: HD5 mutant S15A, chemically synthesized (peptide, UniProt Q01523 20-94, looked up, variant S15A)
Defensin alpha 5: B1 Defensin alpha 5 with S58A, A71R
modifications: Defensin-5
B4: Y27A-HD5: HD5 mutant Y27A, chemically synthesized; hydrophobicity (peptide, UniProt Q01523 20-94, looked up, variant Y27A)
Defensin alpha 5: B1 Defensin alpha 5 with Y70A, A71R
modifications: Defensin-5
B5: Y4A-HD5: HD5 mutant Y4A, chemically synthesized; hydrophobicity (peptide, UniProt Q01523 20-94, looked up, variant Y4A)
Defensin alpha 5: B1 Defensin alpha 5 with Y47A, A71R
modifications: Defensin-5
B6: human α-defensin 5 (peptide, UniProt Q01523 20-94, looked up)
Defensin alpha 5: B1 Defensin alpha 5 with A71R
modifications: Defensin-5

What was measured:
Type in all cases: cell-based
HIV-1JR-FL [1] = system: HIV-1JR-FL
HIV-1JR-FL [2] = system: HIV-1JR-FL; remark: listed apart in the source
HIV-1JR-FL [3] = system: HIV-1JR-FL; remark: listed apart in the source

Molecule | Attachment 10 μg/mL: relative percent of HIV attachment compared to WT HD6 (HIV-1JR-FL [1]) [%] | Attachment 30 μg/mL: relative percent of HIV attachment compared to WT HD6 (HIV-1JR-FL [1]) [%] | Infectivity 10 μg/mL: relative percent of HIV infectivity compared to WT HD6 (HIV-1JR-FL [2]) [%] | Infectivity 30 μg/mL: relative percent of HIV infectivity compared to WT HD6 (HIV-1JR-FL [2]) [%] | Late RT production compared to WT HD6 (HIV-1JR-FL [3]) | Attachment 10 μg/mL: relative percent of HIV attachment compared to WT HD5 (HIV-1JR-FL [1]) [%] | Attachment 30 μg/mL: relative percent of HIV attachment compared to WT HD5 (HIV-1JR-FL [1]) [%] | Reduction of ability to promote HIV attachment compared to WT HD5 (HIV-1JR-FL [1]) [%] | Infectivity 10 μg/mL: relative percent of HIV infectivity compared to WT HD5 (HIV-1JR-FL [2]) [%] | Infectivity 30μg/mL: relative percent of HIV infectivity compared to WT HD5 (HIV-1JR-FL [2]) [%] | Loss of HIV attachment-enhancing and infection-enhancing activities (HIV-1JR-FL [2])
Ac-HD6: HD6 acetylated at the N-terminus (Ac-AFTCHCRRSCYSTEYSYGTCTVMGINHRFCCL; ends and bridges not checked; UniProt Q01524 69-100, looked up) | 57 ± 14 | 87 ± 19 | 58 ± 24 | 175 ± 43 | comparable |  |  |  |  |  | 
B1 |  |  |  |  |  | 54 ± 17 | 59 ± 19 | 41 | 66 ± 5 | 52 ± 3 | about 50%
B2 |  |  |  |  |  | 17 ± 5 | 27 ± 7 |  | 10 ± 3 | 30 ± 3 | 
B3 |  |  |  |  |  | 118± 9 | 95 ± 16 |  | 166 ± 30 | 81 ± 11 | 
B4 |  |  |  |  |  | 19 ± 11 | 18 ± 9 |  | 28 ± 18 | 29 ± 9 | 
B5 |  |  |  |  |  | 134 ± 26 | 106 ± 3 |  | 136 ± 42 | 75 ± 14 | 
B6 |  |  |  |  |  | 100 ± 0 | 100 ± 0 |  | 100 ± 0 | 100 ± 0 | 
